In publication PMC2174547 (The Journal of Cell Biology, 2000) one finds Kd and IC50 data, which are given here for two molecules.

Usually Kd stands for the concentration at which binding is half-saturated. By IC50 is commonly meant the midpoint of a concentration-inhibition curve. Read a low IC50 as greater potency in that assay.

Assay [1] addresses 6xHis-PEX19 (human) (UniProt P40855). The experiment in a line: far-Western, overlay or dot blot.
Assay [2] concerns the target T1, 6xHis-PEX19 (human, UniProt P40855 1-299).
T1 sequence: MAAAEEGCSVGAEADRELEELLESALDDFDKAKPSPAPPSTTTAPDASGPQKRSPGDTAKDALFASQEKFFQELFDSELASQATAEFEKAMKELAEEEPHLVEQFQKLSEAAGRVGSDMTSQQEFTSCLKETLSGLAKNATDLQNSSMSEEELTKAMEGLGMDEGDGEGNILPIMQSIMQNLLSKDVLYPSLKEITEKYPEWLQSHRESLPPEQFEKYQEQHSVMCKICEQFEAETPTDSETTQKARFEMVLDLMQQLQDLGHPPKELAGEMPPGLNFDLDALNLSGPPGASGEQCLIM
The experiment in a line: far-Western, overlay or dot blot.

Where “and” joins values, the source holds several entries; their conditions need not be identical. Equal entries are not always repeated.

For the molecule “6xHis-PEX14 (from UniProt O75381 1-377) (natural protein)”, the Kd in assay [1] was 350 nM and 800 nM and 500 nM.

B1: 6xHis-PEX14 amino acids 1–147 (domain or fragment)
chain: MASSEQAEQPSQPSSTPGSENVLPREPLIATAVKFLQNSRVRQSPLATRRAFLKKKGLTDEEIDMAFQQSGTAADEPSSLGPATQVVPVQPPHLISQPYSPAGSRWRDYGALAIIMAGIAFGFHQLYKKYLLPLILGGREDRKQLER
In assay [2], B1 showed an IC50 of 30000 nM.
